The target in test [1] is T1, recombinant CYLD WT (GST tag cleaved) (human, UniProt Q9NQC7 1-956).
T1 sequence (looked up): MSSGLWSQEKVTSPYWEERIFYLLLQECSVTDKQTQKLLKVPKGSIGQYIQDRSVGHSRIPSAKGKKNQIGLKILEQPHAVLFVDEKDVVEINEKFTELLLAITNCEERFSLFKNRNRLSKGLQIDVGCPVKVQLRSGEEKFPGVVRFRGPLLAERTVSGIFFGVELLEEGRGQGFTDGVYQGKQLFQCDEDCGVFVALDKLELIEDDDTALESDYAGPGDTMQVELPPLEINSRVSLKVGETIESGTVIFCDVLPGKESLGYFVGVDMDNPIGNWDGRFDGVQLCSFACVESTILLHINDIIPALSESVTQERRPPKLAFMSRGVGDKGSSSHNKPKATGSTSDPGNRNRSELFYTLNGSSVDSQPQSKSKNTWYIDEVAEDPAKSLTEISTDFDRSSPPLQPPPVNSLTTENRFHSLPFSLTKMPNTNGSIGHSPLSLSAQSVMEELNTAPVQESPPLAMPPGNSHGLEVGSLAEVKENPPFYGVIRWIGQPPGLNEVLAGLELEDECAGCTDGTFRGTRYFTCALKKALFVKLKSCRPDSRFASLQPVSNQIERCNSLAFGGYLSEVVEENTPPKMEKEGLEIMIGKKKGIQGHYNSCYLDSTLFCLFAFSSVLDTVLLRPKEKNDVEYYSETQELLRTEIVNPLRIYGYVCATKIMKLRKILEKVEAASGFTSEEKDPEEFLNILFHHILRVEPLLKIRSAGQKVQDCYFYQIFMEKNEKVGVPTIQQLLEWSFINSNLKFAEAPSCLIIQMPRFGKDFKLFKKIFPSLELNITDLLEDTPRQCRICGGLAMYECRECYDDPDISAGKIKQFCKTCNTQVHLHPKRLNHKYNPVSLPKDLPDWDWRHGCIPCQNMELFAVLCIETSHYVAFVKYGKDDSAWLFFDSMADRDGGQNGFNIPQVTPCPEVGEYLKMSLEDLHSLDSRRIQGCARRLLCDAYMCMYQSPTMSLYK
The test can be described thus: pull-down.

Test [2] deals with T2, purified recombinant GST-tagged CYLD (human, UniProt Q9NQC7 1-956).
T2 sequence (looked up): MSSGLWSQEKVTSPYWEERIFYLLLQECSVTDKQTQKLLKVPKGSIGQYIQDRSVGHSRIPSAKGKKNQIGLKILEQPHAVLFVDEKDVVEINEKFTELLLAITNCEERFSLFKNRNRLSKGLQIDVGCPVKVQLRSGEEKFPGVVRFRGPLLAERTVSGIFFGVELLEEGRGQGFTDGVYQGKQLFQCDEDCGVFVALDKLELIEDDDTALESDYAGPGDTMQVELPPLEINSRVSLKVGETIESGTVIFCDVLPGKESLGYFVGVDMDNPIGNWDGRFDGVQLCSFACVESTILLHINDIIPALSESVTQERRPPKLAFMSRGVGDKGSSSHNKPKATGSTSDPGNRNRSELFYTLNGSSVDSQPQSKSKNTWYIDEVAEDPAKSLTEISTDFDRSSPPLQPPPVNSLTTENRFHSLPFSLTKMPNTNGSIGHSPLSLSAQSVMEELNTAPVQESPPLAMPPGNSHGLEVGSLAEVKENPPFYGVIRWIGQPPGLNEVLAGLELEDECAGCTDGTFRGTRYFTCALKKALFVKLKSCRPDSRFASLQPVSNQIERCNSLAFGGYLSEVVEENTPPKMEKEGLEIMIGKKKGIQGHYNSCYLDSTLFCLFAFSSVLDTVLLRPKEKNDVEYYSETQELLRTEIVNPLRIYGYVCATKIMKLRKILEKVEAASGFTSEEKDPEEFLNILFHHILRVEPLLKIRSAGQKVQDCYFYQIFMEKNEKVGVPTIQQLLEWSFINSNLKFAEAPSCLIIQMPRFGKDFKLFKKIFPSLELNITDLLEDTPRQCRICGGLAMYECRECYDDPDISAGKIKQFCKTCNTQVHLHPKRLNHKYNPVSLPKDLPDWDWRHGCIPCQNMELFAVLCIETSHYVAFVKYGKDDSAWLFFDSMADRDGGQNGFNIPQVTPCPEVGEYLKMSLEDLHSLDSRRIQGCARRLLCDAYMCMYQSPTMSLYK
As to the kind of experiment: pull-down.

B1: purified recombinant GST-tagged PARIS (natural protein)
chain: not shown
As for B1, the binding result in test [1] is listed as “binds”.

B2: recombinant PARIS (prey of the reciprocal GST pull-down) (natural protein)
chain: not shown
As to B2, the binding result in test [2] is on record as “binds”.
